# Measured values published in US20190185562A1.
# How the values were obtained:
# [1] = target: extracellular domain of human LEPR, GPI-anchored on HEK293/hLEPR-GPI cells (human) (UniProt P48357); assay: FACS, 200 nM antibody, HEK293/hLEPR-GPI cells, 1 µM Leptin present
# [2] = target: full length human GP130 (leucine at position 2 changed to valine) on HEK293/Stat3-luc/gp130-2X Sort cells (human) (UniProt P40189); assay: FACS, 200 nM antibody, HEK293/gp130 2X Sort cells
# [3] = target: extracellular domain of human LEPR, GPI-anchored on HEK293/hLEPR-GPI cells (human) (UniProt P48357); assay: FACS, 200 nM antibody, HEK293/hLEPR-GPI cells, No Leptin
# [4] = target: full length human GP130 (leucine at position 2 changed to valine) on HEK293/Stat3-luc/gp130-2X Sort cells (human) (UniProt P40189); assay: FACS, secondary antibody only, HEK293/gp130 2X Sort cells
# [5] = target: extracellular domain of human LEPR, GPI-anchored on HEK293/hLEPR-GPI cells (human) (UniProt P48357); assay: FACS, secondary antibody only, HEK293/hLEPR-GPI cells, 1 µM Leptin present
# [6] = target: extracellular domain of human LEPR, GPI-anchored on HEK293/hLEPR-GPI cells (human) (UniProt P48357); assay: FACS, secondary antibody only, HEK293/hLEPR-GPI cells, No Leptin
# [7] = target: full length (FL) human gp130 over-expressed on HEK293/Stat3-luc/gp130-2X Sort cells (human) (UniProt P40189); assay: FACS, secondary antibody alone, 293/Stat3-luc/GP130 2X sort cells
# [8] = target: gp130 expressed endogenously on IMR-32/STAT3-Luc cells (human) (UniProt P40189); assay: FACS, secondary antibody alone, IMR-32/Stat3-luc cells, no hGP130.mmh
# [9] = target: gp130 expressed endogenously on IMR-32/STAT3-Luc cells (human) (UniProt P40189); assay: FACS, secondary antibody alone, IMR-32/Stat3-luc cells, 1 uM hGP130.mmh present
# [10] = target: gp130 expressed endogenously on IMR-32/STAT3-Luc cells (human) (UniProt P40189); assay: cell-based or functional assay
# Chain of extracellular domain of human LEPR, GPI-anchored on HEK293/hLEPR-GPI cells (human) (P48357 22-839 limits assumed): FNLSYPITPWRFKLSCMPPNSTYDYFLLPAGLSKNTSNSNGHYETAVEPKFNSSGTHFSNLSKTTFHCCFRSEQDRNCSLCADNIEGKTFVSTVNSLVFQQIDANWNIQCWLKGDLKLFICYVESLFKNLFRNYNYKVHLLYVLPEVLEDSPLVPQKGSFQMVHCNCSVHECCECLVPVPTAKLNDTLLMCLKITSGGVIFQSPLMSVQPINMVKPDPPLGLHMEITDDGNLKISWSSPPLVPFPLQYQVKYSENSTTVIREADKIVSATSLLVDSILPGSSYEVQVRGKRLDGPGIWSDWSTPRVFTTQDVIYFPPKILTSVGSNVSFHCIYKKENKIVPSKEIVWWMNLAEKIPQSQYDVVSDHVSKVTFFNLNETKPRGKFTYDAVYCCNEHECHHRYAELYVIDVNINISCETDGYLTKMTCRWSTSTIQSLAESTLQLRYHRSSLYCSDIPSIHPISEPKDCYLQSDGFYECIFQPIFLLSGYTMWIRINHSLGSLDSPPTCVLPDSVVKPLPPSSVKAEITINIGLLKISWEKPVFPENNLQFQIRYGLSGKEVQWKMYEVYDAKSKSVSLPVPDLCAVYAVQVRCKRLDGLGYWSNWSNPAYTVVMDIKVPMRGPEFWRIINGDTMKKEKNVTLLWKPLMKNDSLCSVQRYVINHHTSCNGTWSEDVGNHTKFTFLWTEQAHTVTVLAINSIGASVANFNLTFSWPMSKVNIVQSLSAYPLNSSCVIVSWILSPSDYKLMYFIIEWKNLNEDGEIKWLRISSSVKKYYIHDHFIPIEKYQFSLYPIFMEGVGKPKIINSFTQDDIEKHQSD
# Chain of gp130 expressed endogenously on IMR-32/STAT3-Luc cells (human) (P40189 23-918): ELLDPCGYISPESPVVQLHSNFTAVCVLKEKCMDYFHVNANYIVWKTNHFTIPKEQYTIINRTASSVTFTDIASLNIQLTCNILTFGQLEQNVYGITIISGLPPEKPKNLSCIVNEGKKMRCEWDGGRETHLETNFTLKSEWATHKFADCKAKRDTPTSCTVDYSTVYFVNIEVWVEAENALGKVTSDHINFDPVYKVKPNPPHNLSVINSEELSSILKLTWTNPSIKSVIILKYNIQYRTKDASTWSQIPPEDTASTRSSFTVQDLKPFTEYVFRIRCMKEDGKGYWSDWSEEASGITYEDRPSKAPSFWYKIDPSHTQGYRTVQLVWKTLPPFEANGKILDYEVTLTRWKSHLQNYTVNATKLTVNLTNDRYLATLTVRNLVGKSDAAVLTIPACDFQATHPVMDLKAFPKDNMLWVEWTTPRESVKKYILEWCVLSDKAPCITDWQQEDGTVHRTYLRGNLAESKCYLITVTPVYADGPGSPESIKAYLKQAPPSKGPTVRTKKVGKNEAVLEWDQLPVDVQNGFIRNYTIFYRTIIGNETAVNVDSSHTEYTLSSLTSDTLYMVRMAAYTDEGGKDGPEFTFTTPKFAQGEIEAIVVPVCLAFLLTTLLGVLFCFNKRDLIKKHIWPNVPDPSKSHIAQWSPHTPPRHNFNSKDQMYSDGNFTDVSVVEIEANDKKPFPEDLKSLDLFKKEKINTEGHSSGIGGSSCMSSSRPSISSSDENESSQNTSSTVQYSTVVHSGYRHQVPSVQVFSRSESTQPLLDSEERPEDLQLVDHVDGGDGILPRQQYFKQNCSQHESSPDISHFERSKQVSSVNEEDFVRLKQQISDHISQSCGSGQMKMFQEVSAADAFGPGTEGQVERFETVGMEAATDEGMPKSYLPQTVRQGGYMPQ
# Chain of full length human GP130 (leucine at position 2 changed to valine) on HEK293/Stat3-luc/gp130-2X Sort cells (human) (P40189 23-918): as above
# Chain of full length (FL) human gp130 over-expressed on HEK293/Stat3-luc/gp130-2X Sort cells (human) (P40189 23-918): as above
substance,measurement,setting,value
Isotype Control (antibody),Binding Ratio: Normalized to Unstained Sample of Each Cell Line (FL4-A),[1],3
same,Binding Ratio: Normalized to Unstained Sample of Each Cell Line (FL4-A),[2],2
same,Binding Ratio: Normalized to Unstained Sample of Each Cell Line (FL4-A),[3],3
Secondary antibody alone,Binding Ratio: Normalized to Unstained Sample of Each Cell Line (FL4-A),[4],1
same,Binding Ratio: Normalized to Unstained Sample of Each Cell Line (FL4-A),[5],2
same,Binding Ratio: Normalized to Unstained Sample of Each Cell Line (FL4-A),[6],3
a-h 2″ alone (antibody),MFI - Normalized to Unstained Control,[7],2
same,MFI - Normalized to Unstained Control,[8],4
same,MFI - Normalized to Unstained Control,[9],8
human Leukemia Inhibitory Factor (from UniProt P15018 23-202) (ligand),EC50 of activation of IMR-32/STAT3-luc cells (STAT3-luciferase),[10],0.023 nM
